The record followed here is patent publication US20160176924A1, “MODIFIED PEPTIDES AS POTENT INHIBITORS OF THE PSD-95/NMDA RECEPTOR INTERACTION” (priority 2008, published 2016).

pKi: −log10 of the molar value.

Common to all, as to experiment: FP competition, fluorescent NR2B probe
The target in assay [1] is HIS-PDZ1 protein (PSD-95 PDZ1, residues 61-151, with tag …) (human) (UniProt P78352).
Assay [2] addresses HIS-PDZ2 protein (PSD-95 PDZ2, residues 155-249, with tag …) (human) (UniProt P78352).
Assay [3] concerns the target HIS-PDZ1-2 protein (PSD-95 PDZ1-2 tandem, residues 61-249, with tag …) (human) (UniProt P78352).

As for “ESDV (8) with D-Glu instead of L-Glu (peptide)”, the fold impairment of affinity relative to peptide 1 in assay [1] and in assay [2] was above 25 fold each time.

SDV (9) (peptide): the results for the fold increase in Ki compared to peptide 1 in assay [1] and in assay [2] were above 20 fold and above 30 fold, respectively.

With TAV (49) (peptide), the results for the pKi in assay [1] and in assay [2] were 4.38 and 4.43, respectively.

For Tat-NR2B (3) (peptide), the figures for the pKi in assay [1], in assay [3] and in assay [2] were 4.85, 5.01 and 5.36, respectively.

A word on the pKi: it is the Ki on a negative log10 scale, so that one unit is a factor of ten. Read a low pKi as a large Ki.
